# According to publication PMC4755347:
# Biological target: C. jejuni outer membrane channel CmeC (C. jejuni) (UniProt Q8RTE3)
# Assay: crystal structure
substance,measurement,value
C. jejuni outer membrane channel CmeC (from UniProt Q8RTE3 1-492) (natural protein),stoichiometry N,3
